± gives the uncertainty stated by the source.
Assay: amyloid nucleation score (Sup35N fusion, yeast selection) (log enrichment); library NNK3; higher = more nucleation; inactive = no reads after selection
Outline: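 On medium lacking adenine and uracil, psi-negative yeast expressing peptides of 20 random codons fused to Sup35N were grown 7 days at 30°C after a 24-hour induction with 100 μM copper sulfate. Illumina sequencing of input and output plasmid inserts gave the reads, and sequences under 100 input reads were excluded. The nucleation score is the DiMSum log enrichment of output over input reads, centred on the mode score of non-aggregating sequences.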
In the case of KRSDVYVGKNCSEDMRFSNL, the amyloid nucleation score is reported as “inactive”. For HINTWRLFRVGIPYVCVSDG, the amyloid nucleation score was “inactive”. For GRHKFRMVVIRAVRVSVLEN, the amyloid nucleation score was “inactive”. In the case of LWDRHNCWGDEASFPSRPTY, the amyloid nucleation score is reported as “inactive”. In the case of SIEMQYNDMRLR, the amyloid nucleation score is reported as “inactive”. Substance LNLNFKVRGL has an amyloid nucleation score of 0.654 ± 0.27. In the case of SVAKNCWCPKCGMSSTFDSI, the amyloid nucleation score is reported as “inactive”. For AYLFLLWSW, the amyloid nucleation score was “inactive”. With GFEPRRYP the amyloid nucleation score was -0.646 ± 1.3. VIDEYQSVICGYLIRGWHAS showed an amyloid nucleation score of 1.79 ± 0.088. In the case of HYVPVASDVRGMIYFRSFEW, the amyloid nucleation score is reported as “inactive”. Work on FHVYCVWVRTLSCWRENNVK yielded an amyloid nucleation score of 1.5 ± 0.14. For WWIARIRMHGCCDVYLGQHR, the amyloid nucleation score was 2.6 ± 0.087. For FSSVGRDDYCNGLM, the amyloid nucleation score was “inactive”. For AYADGYNLFWDYK, the amyloid nucleation score was “inactive”. With SISWRYATTSDVSLWIFVQT the amyloid nucleation score was “inactive”. In the case of IWIGFPFLSSSGGPMYPL, the amyloid nucleation score is reported as “inactive”. For PMQAS, the amyloid nucleation score was “inactive”. In the case of KGSSC, the amyloid nucleation score is reported as “inactive”. Substance YNFGVMVWTSDF has an amyloid nucleation score of 2 ± 0.073. With KRWIAHASWSSTGTWFWSGG the amyloid nucleation score was “inactive”. Substance LLYIRC has an amyloid nucleation score of 0.705 ± 0.23. In the case of DLLYYLRSCDFCCCMDTS, the amyloid nucleation score is reported as “inactive”. With CQSLLSGRFTGKSFEIT the amyloid nucleation score was “inactive”. For DSFLVYIKSCIIILTGLNLY, the amyloid nucleation score was “inactive”. With VYISFGFLILFLFSEFLPCV the amyloid nucleation score was “inactive”. For IRYPVRV, the amyloid nucleation score was “inactive”. For YSSANNCNWC, the amyloid nucleation score was 1.7 ± 0.077. DRRLPIKPHVFVYSCNSICM showed an amyloid nucleation score of 0.921 ± 0.17. In the case of NLYRRYHVHSKRALSIYSTP, the amyloid nucleation score is reported as -0.033 ± 0.23. In the case of EGRCMRKCARVNGSWAMKWM, the amyloid nucleation score is reported as “inactive”. In the case of QSNTLYIKFAAWSYFFSDPE, the amyloid nucleation score is reported as “inactive”. Substance CFRAGVIFIWGVHNSYYRTS has an amyloid nucleation score of 2.23 ± 0.082. For NGKLVFCWDKFIYVYRLTWW, the amyloid nucleation score was “inactive”. Work on YSLEGSRSTVWRGVCCKLAF yielded an amyloid nucleation score of 0.092 ± 0.24. For KRWEPMACPDSNRDKLKECV, the amyloid nucleation score was “inactive”. In the case of ESKMGCP, the amyloid nucleation score is reported as “inactive”. With YLICDFTFYVRGGGGMSQMT the amyloid nucleation score was 0.655 ± 0.28. For WMVVTMPSLKCGSYASVHGA, the amyloid nucleation score was “inactive”. For LYVFYCVTHLHSIGPGQCLR, the amyloid nucleation score was “inactive”. For YRMIKHRTFDSPVLFS, the amyloid nucleation score was “inactive”. For DYDRIR, the amyloid nucleation score was “inactive”. With KGSSSSIDTIFLYRGYFSIA the amyloid nucleation score was “inactive”. With HGDDCGDRDCGGRKECTGIA the amyloid nucleation score was “inactive”. With SYMVKM the amyloid nucleation score was “inactive”. In the case of SRFLRMASGYWSN, the amyloid nucleation score is reported as “inactive”. With AFISSKARTYKIRMMPVPTS the amyloid nucleation score was “inactive”. For SIIGGWCGNE, the amyloid nucleation score was “inactive”. For SYMWPMSWQET, the amyloid nucleation score was “inactive”. For TKIYVLLFTSLVLVDTVLFL, the amyloid nucleation score was -0.002 ± 0.4. For FMIAQGYHMLYLKHLCTSRN, the amyloid nucleation score was “inactive”. With YDLCERLR the amyloid nucleation score was “inactive”. For LRQQRHACAIMEVSG, the amyloid nucleation score was “inactive”. With LFRLYRLL the amyloid nucleation score was “inactive”. For VLTVEMLHAWNCG, the amyloid nucleation score was “inactive”. In the case of TRFSVDVRIFWIINYFLWLL, the amyloid nucleation score is reported as “inactive”. For RSWSLCIGFMFFVRNS, the amyloid nucleation score was “inactive”. For ARCVVAFIILGNYR, the amyloid nucleation score was 0.663 ± 0.21. In the case of ALSLYLISLWYGYSWYLRFD, the amyloid nucleation score is reported as “inactive”. Work on RVVNRFRNCWK yielded an amyloid nucleation score of 0.717 ± 0.19. For LNHYECSW, the amyloid nucleation score was “inactive”. For FQAYDSWNNWSSGFILKYSI, the amyloid nucleation score was “inactive”. In the case of YLSNLYSPKRNWAAVL, the amyloid nucleation score is reported as “inactive”. In the case of LSSFLLFLAELCWVLKQRMC, the amyloid nucleation score is reported as “inactive”. For SITRELGNETLYSLLGPRAF, the amyloid nucleation score was “inactive”. In the case of TWNGMWFVLSSL, the amyloid nucleation score is reported as “inactive”. In the case of VIKTTNNQ, the amyloid nucleation score is reported as 1.09 ± 0.11. Work on VGFCNGIGVVMGRPAKCSWR yielded an amyloid nucleation score of -0.06 ± 1.1. In the case of YMAAVTFFEVY, the amyloid nucleation score is reported as 0.012 ± 0.34. With KTIGILLNCIGWFVVGLPGS the amyloid nucleation score was 0.863 ± 0.21. For RRGSNTGCPNVQNFVITLWQ, the amyloid nucleation score was “inactive”. In the case of TLSWNISCVCSERPFFNMHV, the amyloid nucleation score is reported as “inactive”. For FFLWVYLLKSFSS, the amyloid nucleation score was “inactive”. With VGLIRCLVDVKLI the amyloid nucleation score was “inactive”. With LCCGVCR the amyloid nucleation score was “inactive”. With RPNVDWKMPRFCFPSQSKTG the amyloid nucleation score was “inactive”. For YRIWEQTLMFYVNLSRAKCF, the amyloid nucleation score was “inactive”. For ERTSYSC, the amyloid nucleation score was “inactive”. For LCMMMPRIIQFICHSYEHVD, the amyloid nucleation score was “inactive”. In the case of ASGFLYSSSHLERNKLVNKF, the amyloid nucleation score is reported as “inactive”. For CCKTFYY, the amyloid nucleation score was “inactive”. In the case of FIERLARNQFLNAYSMLDCE, the amyloid nucleation score is reported as “inactive”. With LLFDDKCYGLVVDNYRYANI the amyloid nucleation score was “inactive”. LVSVVYLEGTGGDYDFFIAT gave an amyloid nucleation score of 2.01 ± 0.079. With PLKIYIGNQLV the amyloid nucleation score was “inactive”. For CQVMSNFCNGMPQTQFGVGS, the amyloid nucleation score was “inactive”. For LYRRVHVMGPVSHLDKLERC, the amyloid nucleation score was “inactive”. With AASRMLWPGWNIRPSDAVVE the amyloid nucleation score was “inactive”. ISISLLFGMTFTSFSRLIHF showed an amyloid nucleation score of 1.42 ± 0.11. With LSLSRRGYQLLLEASGRCYV the amyloid nucleation score was “inactive”. With VTMFDLVSM the amyloid nucleation score was “inactive”. With CLMPLSDN the amyloid nucleation score was “inactive”. For FGDAYM, the amyloid nucleation score was “inactive”. In the case of PDGTILMCGRPMCYIVYGAK, the amyloid nucleation score is reported as “inactive”. With GASKHT the amyloid nucleation score was 0.319 ± 0.33. With ASDKMELILLLTSYRSYYDC the amyloid nucleation score was “inactive”. With RRVSMPLSGDKSRSVEGVRR the amyloid nucleation score was “inactive”. In the case of LMFYGFYLVLRGS, the amyloid nucleation score is reported as “inactive”. IVWPIIRAHS gave an amyloid nucleation score of -0.313 ± 0.93. With AITVGLSGARRD the amyloid nucleation score was “inactive”. For YYAPVCYLSTKQGKARRPPP, the amyloid nucleation score was “inactive”. In the case of GKEKCTMNSHATLRVDVEMT, the amyloid nucleation score is reported as “inactive”. For LFTLKLTVSKMKLWLLYGCS, the amyloid nucleation score was “inactive”. With SKPSYFHNFLFDKMSDRLCT the amyloid nucleation score was “inactive”. For SRNFTRHILHDLHYAGILKA, the amyloid nucleation score was “inactive”. For ELNWWHLLVICCVYYFMVLF, the amyloid nucleation score was “inactive”. For YTVEWWVINCFGGKADL, the amyloid nucleation score was “inactive”. With NGVVMVKSRNVPADKSNCDG the amyloid nucleation score was “inactive”. For ANRYNSITE, the amyloid nucleation score was -0.765 ± 1.5. In the case of CPFLILIFGYPK, the amyloid nucleation score is reported as “inactive”. PCSGLKCSKGCWCNKICKYK showed an amyloid nucleation score of 1.37 ± 0.13. MFTTSCWILKER showed an amyloid nucleation score of 0.248 ± 0.23. For SSDSYLVRESDKSSEWGTRN, the amyloid nucleation score was “inactive”. For RANLSDFYYSSSIDLKLPLT, the amyloid nucleation score was “inactive”. In the case of REYRIFLVPCFSISDRGGSW, the amyloid nucleation score is reported as “inactive”. With MVNTKTISYWPKDSQHLRV the amyloid nucleation score was “inactive”. For SFYGHVHMDTCCN, the amyloid nucleation score was “inactive”. In the case of DDIYKEVDRWKNWYRRLKHT, the amyloid nucleation score is reported as “inactive”. In the case of SFPINGYMFSGYLERWCFTS, the amyloid nucleation score is reported as “inactive”. In the case of VLCDDTCYFADVSSWSWDWF, the amyloid nucleation score is reported as “inactive”. With TDHCMVGGMYLEPVTIFFEG the amyloid nucleation score was “inactive”. For KDVRVWRLFRLD, the amyloid nucleation score was “inactive”. In the case of YKSRGMVYDYFGKMIYHLSG, the amyloid nucleation score is reported as 0.63 ± 0.13. For KQLLAKTALAYEAIRPPIPI, the amyloid nucleation score was “inactive”. For TYGQLCIKVTGLGHFYRPMG, the amyloid nucleation score was 0.922 ± 0.18. For LKSMLLFSMRSRSVKCCGGE, the amyloid nucleation score was “inactive”. ALCANYCFAMFSDSGLRWTV showed an amyloid nucleation score of 1.01 ± 0.09. For YMVMFAPSFSWRVSVQDKGN, the amyloid nucleation score was 3.08 ± 0.063. With LYSAGLNEFLL the amyloid nucleation score was “inactive”. Substance THRFVVLCEIITNPTEMGSG has an amyloid nucleation score of 0.703 ± 0.35. With SYVLLHHLLVMSWVRV the amyloid nucleation score was “inactive”. GVTLGQLR gave an amyloid nucleation score of 1.42 ± 0.15. With GCFNSCILYVLRLSIASVVS the amyloid nucleation score was “inactive”. In the case of VYHFSGWCRHSCSSLQKSHD, the amyloid nucleation score is reported as “inactive”. With KQYLDLVAFIADGYRVSGDE the amyloid nucleation score was “inactive”. In the case of TASRFFCRWVYFRKGVSRCS, the amyloid nucleation score is reported as “inactive”. In the case of SWFGYSVIDAKYGDIRTPVK, the amyloid nucleation score is reported as “inactive”. YGCQSCHGFLCSQFGRPAHS showed an amyloid nucleation score of 0.976 ± 0.21. With FMSTDTLRKCLSACMFGPIP the amyloid nucleation score was 0.021 ± 0.31. For SVLCWFSVR, the amyloid nucleation score was “inactive”. With MVKGGKDHSSVGPC the amyloid nucleation score was “inactive”. SVYTGISLSKFHGSPLVRV gave an amyloid nucleation score of -0.408 ± 1.2. For LAFKSDLSFNETVRKSSWLC, the amyloid nucleation score was “inactive”. In the case of FVEVRVD, the amyloid nucleation score is reported as “inactive”. With GDCCHMADKTGGGTNRQIYH the amyloid nucleation score was “inactive”. With IMKTYLLMLSFFRNPPMVVL the amyloid nucleation score was “inactive”. With PYVQRNVCCAPV the amyloid nucleation score was “inactive”. For ISTARCNLLCRCWLRIYYND, the amyloid nucleation score was “inactive”. In the case of RYRGFNVVVLIGKDRVGSAM, the amyloid nucleation score is reported as “inactive”. For NVPLKWLTWYNRRAATWVEM, the amyloid nucleation score was “inactive”. In the case of FLVFGYASVGAIETWDKTAE, the amyloid nucleation score is reported as “inactive”. VRTYNQCKSHVLDWLRNTYF showed an amyloid nucleation score of -0.295 ± 0.96. With VFTNGRSYISRMISYYKYCR the amyloid nucleation score was “inactive”. With NCRGPCFKSKCSLIPRYTFV the amyloid nucleation score was “inactive”. For LVWVKLAANAFVV, the amyloid nucleation score was 1.4 ± 0.074. With SGAEDFQV the amyloid nucleation score was “inactive”. With GLDLRTCGCYHSIP the amyloid nucleation score was “inactive”. For QMIRVVVFNYDQFFR, the amyloid nucleation score was 1.47 ± 0.084. With SKALVSLWFLISMMNPYFIR the amyloid nucleation score was “inactive”. With ERNNKCDNTVLMKREELQG the amyloid nucleation score was “inactive”.

From the supplement of paper PMC12042874
